Measurements published in US20240124586A1 (WUXI BIOLOGICS IRELAND, published 2024).
Values belong to the binder of their own block, whether it stands above or below them.

What was measured:
[1] = target: T1, human PD-1 on engineered CHO-S cells (W305-CHO-S.hPro1.C6) (human, UniProt Q15116 25-288); test: FACS binding to human PD-1 engineered cells
T1 construct: whole, on cells; also called human PD-1 engineered cells; PD-1+ cells
Description: Engineered human PD-1 expressing cells W305-CHO-S.hPro1.C6 were seeded at 1×10⁵ cells/well in U-bottom 96-well plates (COSTAR 3799). Antibodies with 3.16-fold titration in 1% BSA DPBS from 200 nM to 0.002 nM were added to the cells. The plates were incubated at 4° C. for 1 hour. After wash, […] 1:125 diluted PE-labeled goat anti-human antibody (Jackson 109-115-098) was added to each well and the plates were incubated at 4° C. for 1 hour. The binding of the antibodies onto the cells was tested by flow cytometry and the mean fluorescence intensity (MFI) was analyzed by FlowJo.

[2] = target: T2, cynomolgus PD-1 on engineered 293F cells (W305-293F.cynoPro1.FL.pool) (cynomolgus); test: FACS binding to cynomolgus PD-1 engineered cells
T2 construct: whole, on cells; also called cynomolgus PD-1 engineered cells
Description: 4.0-fold titrated Abs with 1% BSA DPBS from 40 μg/ml to 0.0001526 μg/ml were added to the cells. Plates were incubated at 4° C. for 1 hour. After wash, […] 1:150 diluted PE-labeled goat anti-human antibody (Jackson 109-115-098) was added to each well and the plates were incubated at 4° C. for 1 hour. The binding of the antibodies onto the cells was tested by flow cytometry and the mean fluorescence intensity (MFI) was analyzed by FlowJo.

[3] = target: T3, ECD of human PD-1 (SPR analyte) (human, UniProt Q15116 25-170); test: SPR (Biacore T200), antibody captured by anti-human Fc, PD-1 ECD as analyte
T3 construct: extracellular domain; the SPR method only says ECD of PD-1; also called W305-hPro1.ECD.His
T3 sequence (Q15116 25-170): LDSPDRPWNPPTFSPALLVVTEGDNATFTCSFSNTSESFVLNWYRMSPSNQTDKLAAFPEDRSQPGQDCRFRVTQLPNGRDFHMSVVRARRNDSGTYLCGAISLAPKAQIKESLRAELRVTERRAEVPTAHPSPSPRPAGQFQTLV
Description: SPR technology was used to measure the on-rate constant (ka) and off-rate constant (kd) of the antibodies to ECD of CTLA-4 or PD-1. The affinity constant (KD) was consequently determined.
Biacore T200, Series S Sensor Chip CM5, Amine Coupling Kit, and 10×HBS-EP were purchased from GE Healthcare. Goat anti-human IgG Fc antibody was purchased from Jackson ImmunoResearch Lab (catalog number 109-005-098). In immobilization step, the activation buffer was prepared by mixing 400 mM EDC and 100 mM NHS immediately prior to injection. The CM5 sensor chip was activated for 420 s with the activation buffer. 30 μg/mL of goat anti-human IgG Fcγ antibody in 10 mM NaAc (pH 4.5) was then injected to Fc1-Fc4 channels for 200 s at a flow rate of 5 μL/min. The chip was deactivated by 1 M ethanolamine-HCl (GE). Then the antibodies were captured on the chip. Briefly, 4 μg/mL antibodies in running buffer (HBS-EP+) was injected individually to Fc3 channel for 30 s at a flow rate of […]. […] Regeneration buffer (10 mM Glycine pH 1.5) was injected at 10 μL min for 30 s following every dissociation phase.

[4] = target: T1, human PD-1 on engineered CHO-S cells …; test: competitive FACS on human PD-1 CHO-S cells with 5 ug/ml PD-L1 ECD.mFc (competitor: PD-L1)
Description: (§1) In order to test whether the bispecific antibodies could block hPD-L1 binding to hPD-1 protein, a competitive FACS was conducted. […] Plates were incubated at 4° C. for 1 hour. After wash, the binding of W315-hPro1.ECD.mFc to cell expressive human PD-1 was detected by FITC-labeled goat anti-mouse antibody (abcam 98716 1:125). The competition binding of antibodies to the cells was tested by flow cytometry and the mean fluorescence intensity (MFI) was analyzed by FlowJo.

[5] = target: T1, human PD-1 on engineered CHO-S cells …; test: FACS competition: blocks human PD-L1 protein (W315-hPro1.ECD.mFc) binding to human PD-1 engineered cells
Description: as §1

hCTLA4.ECD.hFc [6] = target: T4, hCTLA4.ECD.hFc (human); test: dual-binding ELISA (hCTLA4.ECD.hFc coated, detected with hPD-1-ECD.Biotin), sample kept 1 d in human serum at 37 C
T4 construct: ECD fused to a human Fc; not biotinylated; also called Human CTLA-4: W316-hPro1.ECD.hFc (in house)
T4 sequence (P16410 36-161): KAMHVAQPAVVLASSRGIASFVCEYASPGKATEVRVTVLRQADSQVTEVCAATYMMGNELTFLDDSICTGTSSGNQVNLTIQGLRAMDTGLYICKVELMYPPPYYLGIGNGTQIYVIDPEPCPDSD
Description: (§2) The antibodies were incubated in freshly isolated human serum at 37° C. On indicated time points, an aliquot of serum treated sample was removed from the incubator and snap frozen in liquid nitrogen, and then stored at −80° C. until ready for a dual-binding ELISA test. The frozen samples were quickly thawed immediately prior to the stability test. Briefly, plates were pre-coated with 0.5 μg/mL of hCTLA4.ECD.hFc (in house) at 4° C. overnight. After 1-hour blocking, the testing antibodies were added to the plates at various concentrations. The plates were incubated at ambient temperature for 1 hour. Following the incubation, the plates were washed three times with 300 μL per well of PBS containing 0.5% (v/v) Tween 20. Then 0.1 μg/ml hPD-1-ECD.Biotin was added to plates and the mixture was incubated for 1 hour. After washing the plates three times, Streptavidin-HRP (Lifetechnologies, #SNN1004) (1:20000 diluted) was added and incubated on the plates for 1 hour at room temperature. After washing six times with 300 μL per well of PBS containing 0.5% (v/v) Tween 20, 100 μL tetramethylbenzidine (TMB) substrate is added for the detection per well. The reaction was stopped after approximately 5 minutes by addition of 100 μL per well of 2 M HCl. The absorbance of the wells was measured at 450 nm with a multiwall plate reader (SpectraMax® M5e). […]

hCTLA4.ECD.hFc [7] = target: T4, hCTLA4.ECD.hFc; test: dual-binding ELISA (hCTLA4.ECD.hFc coated, detected with hPD-1-ECD.Biotin), sample kept 7 d in human serum at 37 C
Description: as §2

T1 sequence (Q15116 25-288, change not shown): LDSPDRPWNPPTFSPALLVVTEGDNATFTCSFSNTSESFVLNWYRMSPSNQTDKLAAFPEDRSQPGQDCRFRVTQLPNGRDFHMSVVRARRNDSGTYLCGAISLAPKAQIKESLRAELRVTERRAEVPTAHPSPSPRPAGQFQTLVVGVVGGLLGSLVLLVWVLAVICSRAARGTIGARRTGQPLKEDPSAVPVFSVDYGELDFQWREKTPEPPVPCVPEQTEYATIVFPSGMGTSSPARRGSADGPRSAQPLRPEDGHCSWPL

EC50 [1]: 0.948 nM
EC50 [2]: 4.71 nM
Top(MFI) [2]: 66800 MFI
Kd [3]: 1.24 nM
IC50 [4]: 1.67 nM
Inhibition % [5]: 98.6%
EC50 (hCTLA4.ECD.hFc [6]): 0.147 nM
EC50 (hCTLA4.ECD.hFc [7]): 0.145 nM
B1: W3248-U6T1.G25R-1.uIgG4.SP, bispecific anti-PD-1 x CTLA-4 (bispecific antibody)
heavy: EVQLLESGGGLVQPGGSLRLSCAASGFTFSSHAMSWVRQAPGKGLEWVSTITGGGGSIYYADSVKGRFTISRDNSKNTLYLQMNSLRAEDTAVYYCAKNRAGEGYFDYWGQGTLVTVSSASTKGPSVFPLAPCSRSTSESTAALGCLVKDYFPEPVTVSWNSGALTSGVHTFPAVLQSSGLYSLSSVVTVPSSSLGTKTYTCNVDHKPSNTKVDKRVGGGGSGGGGSQVQLVESGGGVVQPGRSLRLSCAASGFTFSSYTMHWVRQAPGKGLEWVTFISYDGNNKYYADSVKGRFTISRDNSKNTLYLQMNSLRAEDTAIYYCARTGWLGPFDYWGQGTLVTVLEDLKNVFPPEVAVFEPSEAEISHTQKATLVCLATGFYPDHVELSWWVNGKEVHSGVCTDPQPLKEQPALQDSRYALSSRLRVSATFWQNPRNHFRCQVQFYGLSENDEWTQDRAKPVTQIVSAEAWGRYGPPCPPCPAPEFLGGPSVFLFPPKPKDTLMISRTPEVTCVVVDVSQEDPEVQFNWYVDGVEVHNAKTKPREEQFNSTYRVVSVLTVLHQDWLNGKEYKCKVSNKGLPSSIEKTISKAKGQPREPQVYTLPPSQEEMTKNQVSLTCLVKGFYPSDIAVEWESNGQPENNYKTTPPVLDSDGSFFLYSRLTVDKSRWQEGNVFSCSVMHEALHNHYTQKSLSLSLG
light 1: SYELTQPLSVSVALGQTARITCGGDNIGNKDVHWYQQKPGQAPVLVIYRDSNRPSGIPEGFSGSNSGNTATLTISRAQAGDEADYYCQVWDSIWVFGGGTKLTVLGQPKAAPSVTLFPPSSEELQANKATLVCLISDFYPGAVTVAWKADSSPVKAGVETTTPSKQSNNKYAASSYLSLTPEQWKSHKSYSCQVTHEGSTVEKTVAPTECS
light 2: not shown
notes: IgG4 (S228P); also called U6T1.G25R.IgG4

EC50 [1]: 1.18 nM
EC50 [2]: 5.13 nM
Top(MFI) [2]: 68100 MFI
Kd [3]: 1.32 nM
IC50 [4]: 1.92 nM
Inhibition % [5]: 94.4%
EC50 (hCTLA4.ECD.hFc [6]): 0.0978 nM
EC50 (hCTLA4.ECD.hFc [7]): 0.101 nM
B2: W3248-U6T5.G25-1.uIgG4.SP, bispecific anti-PD-1 x CTLA-4 (bispecific antibody)
heavy: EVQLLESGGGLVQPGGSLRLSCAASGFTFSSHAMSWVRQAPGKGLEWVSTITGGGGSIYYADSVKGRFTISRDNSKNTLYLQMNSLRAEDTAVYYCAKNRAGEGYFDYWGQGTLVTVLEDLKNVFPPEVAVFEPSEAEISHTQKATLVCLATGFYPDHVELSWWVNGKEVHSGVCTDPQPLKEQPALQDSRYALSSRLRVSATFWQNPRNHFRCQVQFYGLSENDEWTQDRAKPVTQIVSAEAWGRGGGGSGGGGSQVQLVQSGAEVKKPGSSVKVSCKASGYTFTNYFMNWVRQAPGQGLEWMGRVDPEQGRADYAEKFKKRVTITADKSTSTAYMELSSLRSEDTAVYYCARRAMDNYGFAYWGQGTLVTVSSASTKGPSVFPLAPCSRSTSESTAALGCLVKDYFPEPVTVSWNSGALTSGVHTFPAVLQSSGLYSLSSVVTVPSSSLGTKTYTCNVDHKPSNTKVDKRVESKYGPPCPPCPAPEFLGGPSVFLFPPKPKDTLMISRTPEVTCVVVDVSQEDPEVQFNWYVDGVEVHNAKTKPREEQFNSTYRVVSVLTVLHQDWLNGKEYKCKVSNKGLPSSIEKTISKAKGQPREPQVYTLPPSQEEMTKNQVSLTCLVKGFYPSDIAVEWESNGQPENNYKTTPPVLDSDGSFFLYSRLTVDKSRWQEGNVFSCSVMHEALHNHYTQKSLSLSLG
light 1: SYELTQPLSVSVALGQTARITCGGDNIGNKDVHWYQQKPGQAPVLVIYRDSNRPSGIPEGFSGSNSGNTATLTISRAQAGDEADYYCQVWDSIWVFGGGTKLTVLPDIQNPDPAVYQLRDSKSSDKSVCLFTDFDSQTQVSQSKDSDVYITDKCVLDMRSMDFKSNSAVAWSQKSDFACANAFQNSIIPEDTFFPSPESS
light 2: EIVLTQSPDFQSVTPKEKVTITCSANSALSYMYWYQQKPDQSPKLWVHGTSNLASGVPSRFSGSGSGTDFTLTINSLEAEDAATYYCHHWSNTQWTFGGGTKVEIKRTVAAPSVFIFPPSDEQLKSGTASVVCLLNNFYPREAKVQWKVDNALQSGNSQESVTEQDSKDSTYSLSSTLTLSKADYEKHKVYACEVTHQGLSSPVTKSFNRGEC
notes: IgG4 (S228P); also called WBP3248-U6T5.G25-1-uIgG4.SP; U6T5.G25.IgG4
